We go through one molecule from patent US20200224203A1.

Data set [1] addresses huntingtin (htt) protein, full length, from human fibroblasts, P42858.
Data set [2] concerns the target modified htt protein after partial exon 12 skipping (human) (UniProt P42858). The data set is described as follows: cell-based or functional assay.

Sequence of huntingtin (htt) protein, full length, from human fibroblasts, P42858 (P42858 whole entry): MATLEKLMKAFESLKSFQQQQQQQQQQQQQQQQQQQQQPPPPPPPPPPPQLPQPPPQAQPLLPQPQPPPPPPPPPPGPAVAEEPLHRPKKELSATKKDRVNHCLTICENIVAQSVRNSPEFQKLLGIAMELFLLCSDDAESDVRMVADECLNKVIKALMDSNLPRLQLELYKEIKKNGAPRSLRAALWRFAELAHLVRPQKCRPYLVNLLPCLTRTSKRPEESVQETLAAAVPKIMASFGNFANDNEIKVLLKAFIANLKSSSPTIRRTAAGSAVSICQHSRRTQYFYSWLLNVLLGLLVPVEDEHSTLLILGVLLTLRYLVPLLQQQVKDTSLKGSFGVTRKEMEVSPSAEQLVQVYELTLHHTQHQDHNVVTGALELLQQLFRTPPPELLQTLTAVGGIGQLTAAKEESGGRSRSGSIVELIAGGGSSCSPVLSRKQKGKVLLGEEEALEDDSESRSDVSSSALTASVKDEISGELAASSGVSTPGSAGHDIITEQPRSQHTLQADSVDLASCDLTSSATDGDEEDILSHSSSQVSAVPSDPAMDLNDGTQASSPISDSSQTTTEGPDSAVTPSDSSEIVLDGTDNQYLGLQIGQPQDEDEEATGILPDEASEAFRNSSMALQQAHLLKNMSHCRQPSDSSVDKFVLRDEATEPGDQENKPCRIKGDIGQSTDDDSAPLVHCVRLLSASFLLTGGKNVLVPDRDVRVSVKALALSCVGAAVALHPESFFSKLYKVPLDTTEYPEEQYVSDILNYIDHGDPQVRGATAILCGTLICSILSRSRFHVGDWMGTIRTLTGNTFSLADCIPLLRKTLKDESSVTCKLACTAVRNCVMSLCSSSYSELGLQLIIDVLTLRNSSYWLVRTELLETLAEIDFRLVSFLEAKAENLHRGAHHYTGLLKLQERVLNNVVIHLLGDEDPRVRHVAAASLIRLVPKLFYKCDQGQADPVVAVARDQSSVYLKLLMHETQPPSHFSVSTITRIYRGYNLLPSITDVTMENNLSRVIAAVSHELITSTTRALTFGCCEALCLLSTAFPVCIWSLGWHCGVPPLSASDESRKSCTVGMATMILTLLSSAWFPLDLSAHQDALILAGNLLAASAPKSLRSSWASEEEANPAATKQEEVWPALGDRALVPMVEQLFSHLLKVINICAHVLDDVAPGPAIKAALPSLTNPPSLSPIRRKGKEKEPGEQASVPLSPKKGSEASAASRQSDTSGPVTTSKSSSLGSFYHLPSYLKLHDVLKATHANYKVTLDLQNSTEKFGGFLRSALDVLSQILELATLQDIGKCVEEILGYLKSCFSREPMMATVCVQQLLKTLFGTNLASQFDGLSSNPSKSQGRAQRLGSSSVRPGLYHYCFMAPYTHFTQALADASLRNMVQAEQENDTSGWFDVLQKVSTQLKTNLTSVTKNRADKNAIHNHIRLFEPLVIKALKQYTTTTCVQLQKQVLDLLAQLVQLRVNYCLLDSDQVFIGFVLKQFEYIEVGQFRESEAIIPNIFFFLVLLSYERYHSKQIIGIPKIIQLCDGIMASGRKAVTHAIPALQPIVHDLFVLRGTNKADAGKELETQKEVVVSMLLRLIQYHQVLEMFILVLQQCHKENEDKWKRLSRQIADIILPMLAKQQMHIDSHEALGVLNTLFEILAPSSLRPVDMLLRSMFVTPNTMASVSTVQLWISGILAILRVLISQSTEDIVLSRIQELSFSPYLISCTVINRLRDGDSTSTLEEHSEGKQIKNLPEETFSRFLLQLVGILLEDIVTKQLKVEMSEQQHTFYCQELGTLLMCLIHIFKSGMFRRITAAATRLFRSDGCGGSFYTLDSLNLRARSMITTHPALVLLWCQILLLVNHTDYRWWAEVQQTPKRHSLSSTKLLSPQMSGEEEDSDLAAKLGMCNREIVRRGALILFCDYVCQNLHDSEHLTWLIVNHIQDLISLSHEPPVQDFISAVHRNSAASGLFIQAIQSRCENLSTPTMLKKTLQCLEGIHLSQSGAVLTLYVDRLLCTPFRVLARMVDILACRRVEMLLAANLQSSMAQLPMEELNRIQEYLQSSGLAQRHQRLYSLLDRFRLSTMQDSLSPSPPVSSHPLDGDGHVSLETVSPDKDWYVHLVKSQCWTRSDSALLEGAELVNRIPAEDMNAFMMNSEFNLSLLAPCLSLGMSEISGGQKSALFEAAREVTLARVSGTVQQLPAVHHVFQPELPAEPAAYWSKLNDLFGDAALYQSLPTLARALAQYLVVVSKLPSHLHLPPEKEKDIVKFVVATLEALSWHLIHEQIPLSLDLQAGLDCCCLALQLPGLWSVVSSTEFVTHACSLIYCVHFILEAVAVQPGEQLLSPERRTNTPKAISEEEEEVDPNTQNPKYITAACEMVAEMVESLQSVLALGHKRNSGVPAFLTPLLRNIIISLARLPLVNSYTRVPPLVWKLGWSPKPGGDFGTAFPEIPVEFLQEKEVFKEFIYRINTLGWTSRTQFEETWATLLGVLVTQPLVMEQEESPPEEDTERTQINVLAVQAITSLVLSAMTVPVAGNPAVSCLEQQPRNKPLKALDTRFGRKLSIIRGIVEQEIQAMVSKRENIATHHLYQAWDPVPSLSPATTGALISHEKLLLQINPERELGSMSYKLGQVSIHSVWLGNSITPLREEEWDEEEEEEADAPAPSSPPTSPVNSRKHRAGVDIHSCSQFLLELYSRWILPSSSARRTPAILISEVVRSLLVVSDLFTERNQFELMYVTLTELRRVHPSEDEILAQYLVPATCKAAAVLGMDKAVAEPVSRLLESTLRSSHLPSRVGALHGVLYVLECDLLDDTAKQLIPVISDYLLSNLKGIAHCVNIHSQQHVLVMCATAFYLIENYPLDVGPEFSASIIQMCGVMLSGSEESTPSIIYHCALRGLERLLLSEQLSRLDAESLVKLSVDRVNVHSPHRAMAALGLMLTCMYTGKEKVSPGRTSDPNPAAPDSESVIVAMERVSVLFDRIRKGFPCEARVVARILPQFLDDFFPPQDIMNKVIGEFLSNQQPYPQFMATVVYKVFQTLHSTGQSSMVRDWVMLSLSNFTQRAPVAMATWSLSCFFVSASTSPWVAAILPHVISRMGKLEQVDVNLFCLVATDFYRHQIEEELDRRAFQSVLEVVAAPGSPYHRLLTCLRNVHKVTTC

B1: recombinant active caspase-6 (protein)
chain: AFYKREMFDPAEKYKMDHRRRGIALIFNHERFFWHLTLPERRGTCADRDNLTRRFSDLGFEVKCFNDLKAEELLLKIHEVSTVSHADADCFVCVFLSHGEGNHIYAYDAKIEIQTLTGLFKGDKCHSLVGKPKIFIIQACRGNQHDVPVIPLDVVDNQTEKLDTNITEVDAASVYTLPAGADFLMCYSVAEGYYSHRETVNGSWYIQDLCEMLGKYGSSLEFTELLTLVNRKVSQRRVDFCKDPSAIGKKQVPCFASMLTKKLHFFPKSN
Turning to B1, in data set [1], the “N-terminal htt fragments detected by Western blot (4C8 antibody) in an in vitro caspase-6 cleavage assay” value is given as “After samples were incubated with recombinant active caspase-6, N-terminal htt fragments of 98 kDa were detected”. Also, in data set [2], the reduction of 98 kDa N-terminal htt fragments in an in vitro caspase-6 cleavage assay (samples from cells treated with hHTTEx12 7) was determined as 31.9%.
